Test results published in publication PMC9482650, “Quantitative fragmentomics allow affinity mapping of interactomes” (Nature Communications, 2022).

Experiments:
Assay in all cases: holdup assay
Design in all cases: key: below the threshold = too weak to quantify, mostly under pKd 3.1 to 4
FRMPD2_2, Q68DX3 = molecular target: FRMPD2_2, Q68DX3
APBA3_1, O96018 = molecular target: T1, APBA3_1, O96018
T1 sequence (O96018 389-490, limits assumed, looked up): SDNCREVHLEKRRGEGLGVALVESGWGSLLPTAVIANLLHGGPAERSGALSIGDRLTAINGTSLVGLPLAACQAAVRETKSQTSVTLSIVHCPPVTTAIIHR

TJP1_2, Q07157 = molecular target: TJP1_2, Q07157
Sequence of TJP1_2, Q07157 (Q07157 181-274): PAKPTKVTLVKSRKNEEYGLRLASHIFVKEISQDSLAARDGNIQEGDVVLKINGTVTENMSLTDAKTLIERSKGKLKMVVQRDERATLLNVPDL

LAP2, Q96RT1 = molecular target: LAP2, Q96RT1
Sequence of LAP2, Q96RT1 (Q96RT1 other isoform, or with tags, fused parts or gaps): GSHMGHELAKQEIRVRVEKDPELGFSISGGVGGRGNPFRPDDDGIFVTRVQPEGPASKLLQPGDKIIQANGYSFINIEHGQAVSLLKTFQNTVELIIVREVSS

MPDZ_12, O75970 = molecular target: T2, MPDZ_12, O75970
T2 sequence (O75970 1857-1958, limits assumed, looked up): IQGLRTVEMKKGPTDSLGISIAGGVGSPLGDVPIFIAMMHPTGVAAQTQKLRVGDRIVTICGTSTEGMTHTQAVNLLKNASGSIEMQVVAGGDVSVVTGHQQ

DLG3_2, Q92796 = molecular target: T3, DLG3_2, Q92796
T3 sequence (Q92796 221-321, limits assumed, looked up): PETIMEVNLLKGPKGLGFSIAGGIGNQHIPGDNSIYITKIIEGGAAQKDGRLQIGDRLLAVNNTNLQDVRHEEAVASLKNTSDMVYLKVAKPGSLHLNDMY

FRMPD2_3, Q68DX3 = molecular target: FRMPD2_3, Q68DX3
Sequence of FRMPD2_3, Q68DX3 (Q68DX3 1073-1166): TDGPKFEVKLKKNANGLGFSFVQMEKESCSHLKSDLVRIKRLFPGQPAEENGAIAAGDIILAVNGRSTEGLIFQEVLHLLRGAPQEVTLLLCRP

GRIP1_4, Q9Y3R0 = molecular target: T4, GRIP1_4, Q9Y3R0
T4 sequence (Q9Y3R0 467-571, limits assumed, looked up): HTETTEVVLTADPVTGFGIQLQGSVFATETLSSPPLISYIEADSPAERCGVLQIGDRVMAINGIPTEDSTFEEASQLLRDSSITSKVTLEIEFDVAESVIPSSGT

CASK, O14936 = molecular target: CASK, O14936
Sequence of CASK, O14936 (O14936 487-570): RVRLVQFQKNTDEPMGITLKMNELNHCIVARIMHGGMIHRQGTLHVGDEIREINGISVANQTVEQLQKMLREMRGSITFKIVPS

DFNB31_1, Q9P202 = molecular target: T5, DFNB31_1, Q9P202
T5 sequence (Q9P202 135-233, limits assumed, looked up): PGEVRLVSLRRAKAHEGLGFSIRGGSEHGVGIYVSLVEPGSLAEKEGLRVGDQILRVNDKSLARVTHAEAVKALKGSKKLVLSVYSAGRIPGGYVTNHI

PTPN13_1, Q12923 = molecular target: T6, PTPN13_1, Q12923
T6 sequence (Q12923 1088-1188, limits assumed, looked up): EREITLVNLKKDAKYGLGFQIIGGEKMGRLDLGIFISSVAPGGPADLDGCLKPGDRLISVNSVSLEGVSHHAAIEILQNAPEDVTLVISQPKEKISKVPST

NHERF2_2, Q15599 = molecular target: NHERF2_2, Q15599
Sequence of NHERF2_2, Q15599 (Q15599 142-238): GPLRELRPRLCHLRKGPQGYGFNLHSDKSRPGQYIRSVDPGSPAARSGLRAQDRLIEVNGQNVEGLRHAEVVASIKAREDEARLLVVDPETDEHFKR

MPP6, Q9NZW5 = molecular target: T7, MPP6, Q9NZW5
T7 sequence (Q9NZW5 125-219, limits assumed, looked up): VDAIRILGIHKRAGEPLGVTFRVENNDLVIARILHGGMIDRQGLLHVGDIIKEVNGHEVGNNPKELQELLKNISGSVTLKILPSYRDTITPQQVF

GIPC2, Q8TF65 = molecular target: GIPC2, Q8TF65
Sequence of GIPC2, Q8TF65 (Q8TF65 112-203): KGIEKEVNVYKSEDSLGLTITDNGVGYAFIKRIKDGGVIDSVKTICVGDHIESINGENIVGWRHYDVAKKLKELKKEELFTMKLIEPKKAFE

GRIP1_3, Q9Y3R0 = molecular target: T8, GRIP1_3, Q9Y3R0
T8 sequence (Q9Y3R0 247-346, limits assumed, looked up): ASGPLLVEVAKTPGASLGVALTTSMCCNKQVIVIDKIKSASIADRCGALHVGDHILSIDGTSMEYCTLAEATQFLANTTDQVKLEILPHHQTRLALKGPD

PDZD7_3, Q9H5P4 = molecular target: T9, PDZD7_3, Q9H5P4
T9 sequence (Q9H5P4 857-944, limits assumed, looked up): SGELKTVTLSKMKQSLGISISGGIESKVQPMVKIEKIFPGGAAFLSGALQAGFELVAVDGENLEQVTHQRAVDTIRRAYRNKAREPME

DLG1_2, Q12959 = molecular target: DLG1_2, Q12959
Sequence of DLG1_2, Q12959 (Q12959 314-412): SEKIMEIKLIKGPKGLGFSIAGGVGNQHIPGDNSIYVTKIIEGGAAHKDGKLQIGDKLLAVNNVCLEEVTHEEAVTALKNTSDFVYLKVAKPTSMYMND

Inadl_4, Q8NI35 = molecular target: Inadl_4, Q8NI35
Sequence of Inadl_4, Q8NI35 (Q8NI35 547-651): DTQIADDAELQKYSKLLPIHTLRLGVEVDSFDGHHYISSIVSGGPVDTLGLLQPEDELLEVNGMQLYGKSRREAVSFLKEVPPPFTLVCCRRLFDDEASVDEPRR

APBA1_2, Q02410 = molecular target: T10, APBA1_2, Q02410
T10 sequence (Q02410 742-832, limits assumed, looked up): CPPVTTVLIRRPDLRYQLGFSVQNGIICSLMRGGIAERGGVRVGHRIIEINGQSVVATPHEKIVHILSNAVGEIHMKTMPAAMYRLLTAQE

Inadl_6, Q8NI35 = molecular target: Inadl_6, Q8NI35
Sequence of Inadl_6, Q8NI35 (Q8NI35 1058-1167): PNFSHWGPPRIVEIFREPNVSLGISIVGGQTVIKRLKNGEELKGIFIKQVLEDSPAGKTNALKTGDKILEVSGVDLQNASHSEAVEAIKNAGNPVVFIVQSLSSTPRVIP

PCLO, Q9Y6V0 = molecular target: T11, PCLO, Q9Y6V0
T11 sequence (Q9Y6V0 4491-4600, limits assumed, looked up): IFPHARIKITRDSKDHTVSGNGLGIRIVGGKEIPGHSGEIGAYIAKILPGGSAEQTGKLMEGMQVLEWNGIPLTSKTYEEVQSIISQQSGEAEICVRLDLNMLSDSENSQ

PARD3B_1, Q8TEW8 = molecular target: T12, PARD3B_1, Q8TEW8
T12 sequence (Q8TEW8 196-299, limits assumed, looked up): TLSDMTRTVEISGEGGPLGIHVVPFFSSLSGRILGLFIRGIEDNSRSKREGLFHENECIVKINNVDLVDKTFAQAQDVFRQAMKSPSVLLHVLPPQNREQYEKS

SHANK1, Q9Y566 = molecular target: T13, SHANK1, Q9Y566; conditions: plain residues with an end cap or a label only (N-terminal biotin on a linker: ttds)
T13 sequence (Q9Y566 658-767, limits assumed, looked up): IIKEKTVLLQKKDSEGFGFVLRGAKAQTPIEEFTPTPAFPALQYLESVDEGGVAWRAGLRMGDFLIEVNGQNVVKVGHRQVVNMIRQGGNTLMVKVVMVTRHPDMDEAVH

MAGI2_4, Q86UL8 = conditions: plain residues with an end cap or a label only (N-terminal biotin on a linker: ttds)
Sequence of MAGI2_4, Q86UL8 (Q86UL8 772-865): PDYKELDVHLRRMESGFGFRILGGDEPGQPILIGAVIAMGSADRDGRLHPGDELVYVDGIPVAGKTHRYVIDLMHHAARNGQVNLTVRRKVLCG

[1] = plain residues with an end cap or a label only (N-terminal biotin on a linker: ahx)
[2] = plain residues with an end cap or a label only (N-terminal biotin on a linker: ttds)

Measured: pKd

Sequence of FRMPD2_2, Q68DX3 (Q68DX3 944-1038): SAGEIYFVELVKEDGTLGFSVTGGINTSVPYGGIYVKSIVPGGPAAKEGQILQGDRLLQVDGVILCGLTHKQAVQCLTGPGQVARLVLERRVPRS

B1: GRIN1, Q05586;Q05586-2 (peptide)
chain: LSDPSVSTVV
4.58: DLG3_2, Q92796; [1]
4.51: DLG1_2, Q12959; [1]
below the threshold: FRMPD2_2, Q68DX3; [1] | APBA3_1, O96018; [1] | TJP1_2, Q07157; [1] | LAP2, Q96RT1; [1] | MPDZ_12, O75970; [1] | FRMPD2_3, Q68DX3; [1] | GRIP1_4, Q9Y3R0; [1] | CASK, O14936; [1] | DFNB31_1, Q9P202; [1] | PTPN13_1, Q12923; [1] | NHERF2_2, Q15599; [1] | MPP6, Q9NZW5; [1] | GIPC2, Q8TF65; [1] | GRIP1_3, Q9Y3R0; [1] | Inadl_4, Q8NI35; [1] | APBA1_2, Q02410; [1] | Inadl_6, Q8NI35; [1] | PCLO, Q9Y6V0; [1] | PARD3B_1, Q8TEW8; [1]
4.54: PDZD7_3, Q9H5P4; [1]

B2: HPV35-E6, P27228 (peptide)
chain: SKPTRRETEV
4.3: PDZD7_3, Q9H5P4; [2]
4.34: MAGI2_4, Q86UL8
5.49: DLG3_2, Q92796; [2]
below the threshold: FRMPD2_2, Q68DX3; [2] | APBA3_1, O96018; [2] | TJP1_2, Q07157; [2] | MPDZ_12, O75970; [2] | FRMPD2_3, Q68DX3; [2] | GRIP1_4, Q9Y3R0; [2] | CASK, O14936; [2] | DFNB31_1, Q9P202; [2] | PTPN13_1, Q12923; [2] | SHANK1, Q9Y566 | NHERF2_2, Q15599; [2] | MPP6, Q9NZW5; [2] | GIPC2, Q8TF65; [2] | GRIP1_3, Q9Y3R0; [2] | Inadl_4, Q8NI35; [2] | APBA1_2, Q02410; [2] | Inadl_6, Q8NI35; [2] | PCLO, Q9Y6V0; [2] | PARD3B_1, Q8TEW8; [2]
3.69: LAP2, Q96RT1; [2]
5.64: DLG1_2, Q12959; [2]

B3: PLCB4, Q15147 (peptide)
chain: EMDRRPATVV
below the threshold: APBA3_1, O96018; [2] | TJP1_2, Q07157; [2] | LAP2, Q96RT1; [2] | MPDZ_12, O75970; [2] | GRIP1_4, Q9Y3R0; [2] | CASK, O14936; [2] | PTPN13_1, Q12923; [2] | SHANK1, Q9Y566 | NHERF2_2, Q15599; [2] | MPP6, Q9NZW5; [2] | GRIP1_3, Q9Y3R0; [2]
3.48: GIPC2, Q8TF65; [2]
3.71: PCLO, Q9Y6V0; [2]
3.79: APBA1_2, Q02410; [2]
5.03: PDZD7_3, Q9H5P4; [2]
4.24: DLG3_2, Q92796; [2]
3.77: MAGI2_4, Q86UL8
4.01: FRMPD2_3, Q68DX3; [2]
3.53: DFNB31_1, Q9P202; [2]
3.68: PARD3B_1, Q8TEW8; [2]
3.78: FRMPD2_2, Q68DX3; [2]
